From FireProtDB (doi:10.1006/jmbi.2001.5050)

Conditions: Bacillus caldolyticus, pH 7, CD, sodium cacodylate-HCl 100 mM, reversible: yes, whole UniProt chain shown

B1: Cold shock protein CspB wild type, P41016 (protein)
chain: MQRGKVKWFNNEKGYGFIEVEGGSDVFVHFTAIQGEGFKTLEEGQEVSFEIVQGNRGPQAANVVKL
For B1, the denaturant m value (25 °C, GdnHCl) was 1.77 kcal/mol/M, the “denaturant midpoint (higher = more stable)” value (25 °C, GdnHCl) was 2.68 M and the unfolding free energy (25 °C, GdnHCl) was 1.2 kcal/mol. It also gave an unfolding free energy (70 °C, Thermal, NaCl 2 M) of 2.2 kcal/mol, an unfolding free energy (70 °C, Thermal) of 1.08 kcal/mol and a Tm (Thermal) of 76.9 °C. The “unfolding enthalpy (van 't Hoff)” value (Thermal) was 58.6 kcal/mol.
